Assay results published in the DeepSol protein solubility set.

assay: soluble on expression in E. coli; label from the status in PepcDB or PDB records

Sequence | soluble on expression in E. coli
MSLSDYKVGEELSDKEGVEYFKELSKRPVQEWPNKNLSINDVPKGKQGDLIRYGIELLSKTESTLGPYSKLKKTSNEVNCISCHMDNDGNGLPGTKKYVIPFLNILNNYPRLDIETMKIISVEDRIRGMGGTDSHRFPNDSKEMKAILAYFKWLKEAYGIKDGVKLEGDFFAKMNFPNRPADPVRGKKLFEENCVACHGERGLGVKNDNYEQGSGHLYPSLLIYPDGGHMAMIPFLARFLKSAMPFGASADNPILSDEDALDIAAYVNTGFVRMPITTTENRAGLDTAYSKSPSLKPEYFASPQQNLDPKEYIKVKYGPWKNPNHFPGEGHHHHHH | soluble
GMSRTNINFNNKRTELANKIWDIFIANGYENTTLAFIINKLGISKGALYHYFSSKEECADAAIENRVAFFSNEVLKESEEGLNSIERLKKILLAGIKITSVNEQVKEINSPSNKIFHQKLMVAIIKYFAPIYADIISQGNEEGVFKVKYPLETAEIILTLSHFYLDEDLFKWKKEDMSLKLTAFKETLIKILDADEDTFDFIK | soluble
MSNTQAERSIIGMIDMFHKYTRRDDKIDKPSLLTMMKENFPNFLSACDKKGTNYLADVFEKKDKNEDKKIDFSEFLSLLGDIATDYHKQSHGAAPCSGGSQ | not soluble
MENLYKELGDQSLHKDFCQTVASTFSCSVNRNGKSSITWKQVQIWFQEKLKHQSQPKSKTLPSPPLQIHDLSNPSSYASNASNATFVGNSTFVQTRKGKASDLADLAFEAKSARDYAWYDVSSFLTYRVLRTGELEVRVRFSGFDNRHDEWVNVKTSVRERSIPVEPSECGRVNVGDLLLCFQEREDQALYCDGHVLNIKRGIHDHARCNCVFLVRYELDNTEESLGLERICRRPEE | not soluble
GPGSMSTLKEVNGRLNTQPFVSGFSPSSEDARIFNEMFGSNVNVIQWVARMASYYQAERDEILNAGTEKKATEPAKKAAAPAPAAAAAAEEEDDIDLFGETTEEEKAALEAKKAKDAEKKKAKKEVIAKSSILFDIKAWDDTIDLEALAQKLHAIQRDGLIWGDHKLVPVAFGVKKLQQLIVIEDDKVSGDDLEEMVMGFEDEVQSMDIVAWNKI | soluble
MGVMNKGDSVEKCYMCDAEGNTKEHVPPKCIFPEAKDVPSGDNYKKNLITVRSCEKHNTAKSKDDVYLLFFLAANVVSNDLAQTQFGTKIMRAVNRTPHVFAQFAKKNTPVTLKGENGELIHTAAIEIDRARFDAAIEHISHALHYHKYGETFIGDIQVITSGLVDLSSIDSVEVNDRIQNFGQMVDELLADVEPEGDNPEVFTYKVLKTDEPHQVIIQMNFYGGFKIVSIMKYS | not soluble
SAAAALRDQLTALLSSMFSQGLVDEQFQQLQMLQDEGGTPGFVSEVVTLFCDDADRIINEIATLLEQPVVNFDKVDAYVHQLKGSSASVGAQKVKFTCMQFRQFCQDKSRDGCLMALAVVRNDFYDLRNKFQTMLQLEQQIQAYDPKQQ | soluble
MKETNAGSVYSPELIEFATVGVEFCALVEQAAAHRTTDFIDKASKVLPLLYLKTALLPPYEYSEEVDFVEEYITEESYEQVRSAVESLLGSYDSFLDARHSDMQYSDTPVGASIGECLADVYQQVGNLLGVVRQSNDRAIPQAIGRCLTYFGEYWGNRLLAAAGALHELRYSEVYRTWEEEERAED | soluble
MTKIMIIGANGGIAKKLTQRLLAETDDELVLFLRRAERLAQYREQPRVTLIDGNVLDTDELATAMAPVDIVYSNVGGTDLAAQTKSILAAMARTQRQRLIFISALGAHHEVPGKFGAWNEQAIADFLPGFREAARLLSASELVYTEIRPAWLTDVAEIDYELTTGAEPFKGTEVSRASVADLVFKLMAHPENYQRVSLGVDEPGTAGDRPSWLLEHHHHHH | not soluble
MASKDKEINNTIDAIEDKNFKQVYKDSSYISKSDNGEVEMTERPIKIYNSLGVKDINIQDRKIKKVSKNKKRVDAQYKIKTNYGNIDRNVQFNFVKEDGMWKLDWDHSVIIPGMQKDQSIHIENLKSERGKILDRNNVELANTGTAYEIGIVPKNVSKKDYKAIAKELSISEDYIKQQMDQNWVQDDTFVPLKTVKKMDEYLSDFAKKFHLTTNETESRNYPLEKATSHLLGYVGPINSEELKQKEYKGYKDDAVIGKKGLEKLYDKKLQHEDGYRVTIVDDNSNTIAHTLIEKKKKDGKDIQLTIDAKVQKSIYNNMKNDYGSGTAIHPQTGELLALVSTPSYDVYPFMYGMSNEEYNKLTEDKKEPLLNKFQITTSPGSTQKILTAMIGLNNKTLDDKTSYKIDGKGWQKDKSWGGYNVTRYEVVNGNIDLKQAIESSDNIFFARVALELGSKKFEKGMKKLGVGEDIPSDYPFYNAQISNKNLDNEILLADSGYGQGEILINPVQILSIYSALENNGNINAPHLLKDTKNKVWKKNIISKENINLLTDGMQQVVNKTHKEDIYRSYANLIGKSGTAELKMKQGETGRQIGWFISYDKDNPNMMMAINVKDVQDKGMASYNAKISGKVYDELYENGNKKYDIDE | soluble
MGSDKIHHHHHHMGLGHEQGFGAPCLKCKENCEGFELHFWRKICRNCKCGQEEHDVLLSNEEDRKVGRLFEDTKYTTLIAKLKSDGIPMYKRNVMILTNPVAAKKNVSINTVTYEWAPPVQNQALARQYMQMLPKEKQPVAGSEGAQYRKKQLAKQLPAHDQDPSKCHELSPKEVKEMEQFVKKYKSEALGVGDVKFPSEMNAQGDKVHNPAGDRHAPAAVASKDKSAESKKTQYSCYCCKHTMNEGEPAIYAERAGYDKLWHPACFICSTCGELLVDMIYFWKNGKLYCGRHYCDSEKPRCAGCDELIFSNEYTQAENQNWHLKHFCCFDCDHILAGKIYVMVTDKPVCKPCYVKNHAVVCQGCHNAIDPEVQRVTYNNFSWHASTECFLCSCCSKCLIGQKFMPVEGMVFCSVECKRMMS | soluble
MGHHHHHHSHMGKQKKTRKYATMKRMLSLRDQRLKEKDRLKPKKKEKKDPSALKEREVPQHPSCLFFQYNTQLGPPYHILVDTNFINFSIKAKLDLVQSMMDCLYAKCIPCITDCVMAEIEKLGQKYRVALRIAKDPRFERLPCTHKGTYADDCLVQRVTQHKCYIVATVDRDLKRRIRKIPGVPIMYISNHRYNIERMPDDYGAPRF | not soluble
MSLTPGRFLGWENADTASRTASDAIAVMDRRTWQALTTGHVELPCRRIHAGLWFRLLRTLLDELNTPLSACGTYAGYLRQVWQGCGHPLRAGQSLWRPYETLNPAIRLQMLEAAATAISLIEVRDISPPGEHAKLFWSELQTGFTSGLPAKPPKPEPVNHWQRAVQAISEAIIEARHDPETARSLFAMASYGRRDPASLEQLRATFAKEGIPPEFLSHYEADGPFACLRQNDGLSDKEGHHHHHH | not soluble
MAQPPDGRLTYMTQHQRVMEWLNSIDRPNGIHFLDMDAKSLLVLMNTLDRKTRSNLEKSCKILLSISRSDKPHLQQLCLHFTTTWNHDQFAEITAQFSPEHSFHSIFMSKKKSPNWITGGWSIDRQKNITSGIFQPEKLRLSATFVERTSRYIEYWLRNFQIDTLRIKVENLIPGKENSIQQSNYTGEIPPLKLKKLIIHGANNIRFINNWLDNLVPNAIDPLDDKKKIIDVEFLDVGKLDQIFHHSLMTTGKVNLTFNRVSTHFTRKTLNFVNSPMINIVARQVPSEAVNSFLKRWCRGEIIEDFQYLHLMETTQWPSQQMHMMDALSGLRYQIVDLKTDVKLRILEKQKEFPKPAQIFQITGPRPGFCAHFGNQFIFEIPKTEDIQHILVNPPISQNTFDEYERQKNRIYMELFRKRLIRLFN | not soluble
MGSDKIHHHHHHMPTIHLIDGEKGGVGKSLVARTMIQYCLDNNMPFVPVETDRSNPDVAGVYKGICQYAVFTEDERHADKADKIFEIAMNKTVIANLAAQSHRAVKGWIEKNHLIELGESQGVDFCKWFVSTGGYDSLNLFKQSVNSYGGKVPHILVKNLGLCDDWEHVNSDATIQEVVKKYNVKAIDFPKLAYKERNIIDQHRLTFADAREYKEFGIISKQRVVNFLKLAYASFETVGIWYEEVK | not soluble
MPKDKKKDEVTEVEHVDRNISSFSQISHLIDAEIITRLTLSHNKLTSVPPNIADLVSLQSLNLWNNQIEDLPPSISSLPKLRILNVGMNKLSILPRGFGSFPELEILDLTYNNLSERSLPGNFFFMQTLRALYLGDNDFEMLPGDVENLTNLQILVLRENDLLTLPKELGKLTRLRELHIQGNRLAMIPPELGNLELVGSKQVLRLEHNPFIPRIEEQFEANGAAGVWAHIRTDDYRYFFGRQEPSSTPVPPKRNKEKKVSRKGIQQA | not soluble
